# Biological target: GluN1 NMDA receptor subunit, isoform GluN1-2a, with a fluorescent protein on the C-terminus (GluN1-GFP; GluN1-mCherry)
# Assay: FRET or BRET
substance,measurement,value
"GluN1 NMDA receptor subunit, isoform GluN1-2a, with a fluorescent protein on the C-terminus (GluN1-GFP; GluN1-mCherry)",FRET efficiency,5.8%

# — paper PMC8237704
